US20220016130A1 (MAYO FOUNDATION FOR MEDICAL EDUCATION AND RESEARCH, published 2022)

Columns and labels:
[1] = biological target: T1, BRD2 SBC motif-deleted mutant (human, UniProt P25440 1-801, limits assumed); experiment: co-IP (anti-FLAG) in 293T cells
T1 construct: The deleted residues are not numbered in the text; also called FLAG-BRD2 mutant; not shown: FLAG tag

[2] = biological target: T2, BRD3 SBC motif-deleted mutant (human, UniProt Q15059 1-726, limits assumed); experiment: co-IP (anti-FLAG) in 293T cells
T2 construct: The deleted residues are not numbered in the text; also called FLAG-BRD3 mutant; not shown: FLAG tag

[3] = biological target: T3, BRD4 SBC motif-deleted mutant (human, UniProt O60885 1-1362, limits assumed); experiment: co-IP (anti-FLAG) in 293T cells
T3 construct: The deleted residues are not numbered in the text; also called FLAG-BRD4 mutant; not shown: FLAG tag

BRD2 = biological target: T4, BRD2 (human, UniProt P25440 1-801); experiment: figure legend title; yeast two-hybrid and co-IP
T4 construct: One entry covers endogenous and FLAG-tagged full-length BRD2; also called FLAG-BRD2; Flag-BRD2
Method: (§1) A total of 2×10⁷ independent clones were screened by growth in deficient medium and X-gal staining. The positive clones were subsequently retested in fresh yeast cells, and the identities of prey were determined with interaction sequence tags (ISTs) obtained by DNA sequencing. The reading frame was verified.
(§2) To immunoprecipitate the ectopically expressed FLAG-tagged proteins, transfected cells were lysed 24 hours post-transfection in BC100 buffer. The whole-cell lysates were immunoprecipitated with the monoclonal anti-FLAG antibody-conjugated M2 agarose beads (Sigma-Aldrich) at 4° C. overnight. After three washes with lysis buffer, followed by two washes with BC100 buffer, the bound proteins were eluted using FLAG-Peptide (Sigma-Aldrich) prepared in BC100 for 3 hours at 4° C. The eluted protein sample was resolved by SDS-PAGE. To immunoprecipitate the endogenous proteins, cells were lysed with 1× cell lysis buffer (Cell Signaling Technology), and the lysate was centrifuged. The supernatant was precleared with protein A/G beads (Sigma-Aldrich) and incubated with the indicated antibody and protein A/G beads at 4° C. overnight. Beads were washed five times with lysis buffer and resuspended in sample buffer and analyzed by SDS-PAGE.

BRD3 = biological target: T5, BRD3 (human, UniProt Q15059 1-726); experiment: co-IP, ectopic in 293T and endogenous in LNCaP cells
T5 construct: One entry covers endogenous and FLAG-tagged full-length BRD3; also called FLAG-BRD3; Flag-BRD3
Method: as §2

DEK = biological target: T6, DEK (human, UniProt P35659 2-375, limits assumed); experiment: yeast two-hybrid screen, human fetal brain cDNA library
T6 construct: Positive clone of the yeast two-hybrid screen
T6 sequence (looked up): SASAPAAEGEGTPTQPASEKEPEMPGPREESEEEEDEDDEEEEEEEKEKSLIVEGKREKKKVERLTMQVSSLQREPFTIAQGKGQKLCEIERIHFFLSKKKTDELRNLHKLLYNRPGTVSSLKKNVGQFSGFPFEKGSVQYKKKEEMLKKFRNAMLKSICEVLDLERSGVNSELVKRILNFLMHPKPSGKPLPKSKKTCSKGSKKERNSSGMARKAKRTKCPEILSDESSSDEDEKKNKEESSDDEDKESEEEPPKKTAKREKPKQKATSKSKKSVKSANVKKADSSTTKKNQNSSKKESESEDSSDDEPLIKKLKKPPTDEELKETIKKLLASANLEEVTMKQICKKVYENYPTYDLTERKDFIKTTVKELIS
Method: as §1

SRC-3 = biological target: T7, SRC-3 (human, UniProt Q9Y6Q9 2-1424, limits assumed); experiment: as above
T7 construct: Positive clone of the yeast two-hybrid screen
Method: as §1

binding result [1]: no binding
binding result [2]: no binding
binding result [3]: no binding
binding result (BRD2): binds
binding result (BRD3): binds
binding result (DEK): binds
binding result (SRC-3): binds
B1: SPOP (speckle-type POZ polypeptide), wild-type (other, human, UniProt O43791 1-374, looked up)
chain: MSRVPSPPPPAEMSSGPVAESWCYTQIKVVKFSYMWTINNFSFCREEMGEVIKSSTFSSGANDKLKWCLRVNPKGLDEESKDYLSLYLLLVSCPKSEVRAKFKFSILNAKGEETKAMESQRAYRFVQGKDWGFKKFIRRDFLLDEANGLLPDDKLTLFCEVSVVQDSVNISGQNTMNMVKVPECRLADELGGLWENSRFTDCCLCVAGQEFQAHKAILAARSPVFSAMFEHEMEESKKNRVEINDVEPEVFKEMMCFIYTGKAPNLDKMADDLLAAADKYALERLKVMCEDALCSNLSVENAAEILILADLHSADQLKTQAVDFINYHASDVLETSGWKSMVVSHPHLVAEAYRSLASAQCPFLGPPRKRLKQS
notes: also called SPOP-WT; wild-type SPOP
